Assay [1] has as its target W74R hNPR1 mutant in the presence of ANP (human) (UniProt P01160). The assay is described as follows: ELISA, IgG titrated on coated antigen with ANP (250 fold molar excess), fluorescence [Cont.]. Background: ELISA stands for enzyme-linked immunosorbent assay.
Assay [2] concerns the target T1, human Natriuretic Peptide Receptor 1 (hNPR1) (human, UniProt P16066 33-473, limits assumed).
T1 construct: pannings used NPR1-hFc; also called NPR1-hFc
T1 sequence: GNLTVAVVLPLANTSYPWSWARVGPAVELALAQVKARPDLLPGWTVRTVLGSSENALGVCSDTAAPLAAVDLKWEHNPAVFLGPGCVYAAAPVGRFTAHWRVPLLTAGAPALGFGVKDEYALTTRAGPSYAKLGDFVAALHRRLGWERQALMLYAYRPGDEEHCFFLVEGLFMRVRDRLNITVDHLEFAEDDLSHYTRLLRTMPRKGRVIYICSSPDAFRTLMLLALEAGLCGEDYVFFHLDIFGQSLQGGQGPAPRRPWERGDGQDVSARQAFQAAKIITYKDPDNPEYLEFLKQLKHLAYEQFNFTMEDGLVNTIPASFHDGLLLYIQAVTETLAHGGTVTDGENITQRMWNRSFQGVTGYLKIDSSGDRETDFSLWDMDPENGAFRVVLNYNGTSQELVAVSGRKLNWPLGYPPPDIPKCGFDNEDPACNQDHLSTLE
The assay is described as follows: FRET ANP competition assay: IgG titrated on NPR1, Eu-labeled donor, Cy5-labeled ANP as the competed ligand [Cont.]. On the procedure: The same 31 IgGs were tested for ANP competition using a Fluorescence Resonance Energy Transfer (FRET)-based assay in which the NPR1-specific antibodies competed with ANP for binding to NPR1. In this FRET based assay (see FIG. 3), Eu-labeled Streptavidin (for measurement of IgGs) or Eu-labeled anti-hFc antibody (for measurement of FabCys) was used as an energy donor, while Cy5-labeled ANP was used as an acceptor (for all measurements). The resulting fluorescent signal was decreased by ANP-competitive antibodies. The assay was performed as follows: antibodies were mixed with NPR1 and incubated for 5 minutes at room temperature. After addition of the Eu-labeled donor and incubation for 30 minutes at room temperature, the Cy5-ANP solution was added. After a further 60-minute incubation, readout was performed using a TECAN Infinite M1000 Pro using an excitation wavelength of 317 nm and an emission wavelength of 665 nm. Percentage of ANP competition was calculated according to the following formulae: […]
All 92 FabCys and 24 IgGs were tested for binding to relevant antigens via ELISA and relevant cell lines by flow cytometry. […] Eight functional candidates were identified and analyzed for specificity in the Protein Panel Profiling assay (3P assay) in IgG format. For comparison, one of the functional candidates from the initial campaign (WW03) was analyzed. […]

Assay [3] concerns the target T2, rNPR1-ANP complex (rat, UniProt P01160 124-151 (human entry), limits assumed).
T2 construct: rNPR1 antigen in the presence of ANP; also called rNPR1 + 100 nM ANP
T2 sequence: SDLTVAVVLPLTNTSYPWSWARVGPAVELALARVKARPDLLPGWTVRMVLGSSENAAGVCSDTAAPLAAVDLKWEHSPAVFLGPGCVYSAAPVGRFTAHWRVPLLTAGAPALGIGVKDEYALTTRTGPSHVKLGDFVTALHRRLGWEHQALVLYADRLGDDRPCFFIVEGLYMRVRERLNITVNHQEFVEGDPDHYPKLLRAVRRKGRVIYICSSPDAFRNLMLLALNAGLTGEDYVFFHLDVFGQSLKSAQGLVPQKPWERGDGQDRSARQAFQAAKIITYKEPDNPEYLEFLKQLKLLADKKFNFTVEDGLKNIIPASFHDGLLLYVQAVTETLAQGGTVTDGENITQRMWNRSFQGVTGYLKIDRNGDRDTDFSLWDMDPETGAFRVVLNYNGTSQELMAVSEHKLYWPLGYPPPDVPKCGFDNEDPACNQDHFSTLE
T2 sequence (peptide): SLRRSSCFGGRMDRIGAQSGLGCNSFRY
The assay is described as follows: ELISA, 1 µM IgG. Also on record: unit not given here.

Assay [4] addresses T3, human NPR3 in the presence of ANP (human, UniProt P17342 27-481; P01160 124-151, limits assumed).
T3 construct: also called hNPR3 + 100 nM ANP
T3 sequence (looked up): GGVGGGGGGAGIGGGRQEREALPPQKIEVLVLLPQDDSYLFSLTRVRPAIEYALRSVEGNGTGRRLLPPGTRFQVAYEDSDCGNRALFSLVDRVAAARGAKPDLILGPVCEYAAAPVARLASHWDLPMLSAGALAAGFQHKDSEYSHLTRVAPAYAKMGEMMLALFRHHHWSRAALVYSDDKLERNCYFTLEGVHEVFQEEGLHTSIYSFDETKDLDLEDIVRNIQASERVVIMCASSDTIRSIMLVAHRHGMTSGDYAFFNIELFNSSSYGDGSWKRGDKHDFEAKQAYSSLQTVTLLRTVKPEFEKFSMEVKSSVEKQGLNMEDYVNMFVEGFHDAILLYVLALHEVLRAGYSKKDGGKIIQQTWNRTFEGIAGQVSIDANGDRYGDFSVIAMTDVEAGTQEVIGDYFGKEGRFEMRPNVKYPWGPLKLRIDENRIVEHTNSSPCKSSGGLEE
T3 sequence (peptide, looked up): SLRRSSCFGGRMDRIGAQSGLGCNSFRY
The assay is described as follows: ELISA, IgG titrated on coated antigen with ANP (250 fold molar excess), fluorescence [Cont.].

For assay [5], the target named is T2, rNPR1-ANP complex. The description is as above.

The record followed here is patent US20240052042A1 (Novartis, published 2024).

B1: YY06 (IgG format) (antibody, V domains shown)
VH: EVQLLESGGGLVQPGGSLRLSCAASGFTFSSYAISWVRQAPGKGLEWVSAISGSGGSTYYAESVKGRFTISRDNSKNTLYLQMNSLRAEDTAVYYCARPYLGDRRSYGFDHWGQGTLVTVSS
VL: QSALTQPASVSGSPGQSITISCTGTSSDVGSYNLVSWYQQHPGKAPKLMIYEGSKRPSGVSNRFSGSKSGNTASLTISGLQAEDEADYYCSSYGFHIVVVVFGGGTKLTVLG
notes: also called YY06_LALA
In general, EC50 (read off the curve) refers to the midpoint of the concentration-response curve. B1: the EC50 (read off the curve) in assay [1] was 20 nM. Besides, the “IC50 (read off the curve)” value in assay [2] is ~4 nM.

B2: YY07 (IgG format) (antibody, V domains shown)
VH: EVQLVQSGAEVKKPGESLKISCKGSGYSFTSYWISWVRQMPGKGLEWMGIIYPGTSYTRYSPSFQGQVTISADKSISTAYLQWSSLKASDTAMYYCARGSLPGLLGFDHWGQGTLVTVSS
VL: QSVLTQPPSVSGAPGQRVTISCTGSSSNIGAGYDVHWYQQLPGTAPKLLIYGNSNRPNGVPDRFSGSKSGTSASLAITGLQAEDEADYYCQSYDSPTSSSVFGGGTKLTVLG
notes: also called YY07_LALA
B2: the “ELISA binding at 1 µM IgG” value in assay [3] was 3. Moreover, the binding result in assay [4] and in assay [5] was “no binding (tested: 1000 nM)” each time.
